Source: PMC4338599

Target: Ku70-Ku80 heterodimer (Ku);PAXX WT (PAXX1-204, C9orf142) (human?;human, UniProt P12956;P13010;Q9BUH6 1-609;1-732;1-204, |)
Assay: EMSA

Sequence of Ku70-Ku80 heterodimer (Ku);PAXX WT (PAXX1-204, C9orf142) (P12956 whole entry, chain 1 of 3): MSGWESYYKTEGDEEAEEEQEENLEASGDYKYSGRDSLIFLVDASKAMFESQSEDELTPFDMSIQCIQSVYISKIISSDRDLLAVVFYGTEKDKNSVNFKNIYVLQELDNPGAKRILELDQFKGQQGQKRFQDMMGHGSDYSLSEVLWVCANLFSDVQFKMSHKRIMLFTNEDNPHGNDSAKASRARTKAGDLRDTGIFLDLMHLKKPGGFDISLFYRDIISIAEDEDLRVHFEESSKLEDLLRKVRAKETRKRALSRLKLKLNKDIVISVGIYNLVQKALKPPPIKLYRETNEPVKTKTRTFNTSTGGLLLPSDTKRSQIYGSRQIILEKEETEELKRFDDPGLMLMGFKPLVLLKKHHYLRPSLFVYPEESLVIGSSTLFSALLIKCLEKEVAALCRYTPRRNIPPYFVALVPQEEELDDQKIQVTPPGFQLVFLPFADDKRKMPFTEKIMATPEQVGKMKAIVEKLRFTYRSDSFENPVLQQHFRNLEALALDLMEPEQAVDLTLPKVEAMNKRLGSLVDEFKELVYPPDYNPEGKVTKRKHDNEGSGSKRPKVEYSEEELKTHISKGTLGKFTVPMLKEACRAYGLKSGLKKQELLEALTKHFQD
Sequence of Ku70-Ku80 heterodimer (Ku);PAXX WT (PAXX1-204, C9orf142) (P13010 whole entry, chain 2 of 3): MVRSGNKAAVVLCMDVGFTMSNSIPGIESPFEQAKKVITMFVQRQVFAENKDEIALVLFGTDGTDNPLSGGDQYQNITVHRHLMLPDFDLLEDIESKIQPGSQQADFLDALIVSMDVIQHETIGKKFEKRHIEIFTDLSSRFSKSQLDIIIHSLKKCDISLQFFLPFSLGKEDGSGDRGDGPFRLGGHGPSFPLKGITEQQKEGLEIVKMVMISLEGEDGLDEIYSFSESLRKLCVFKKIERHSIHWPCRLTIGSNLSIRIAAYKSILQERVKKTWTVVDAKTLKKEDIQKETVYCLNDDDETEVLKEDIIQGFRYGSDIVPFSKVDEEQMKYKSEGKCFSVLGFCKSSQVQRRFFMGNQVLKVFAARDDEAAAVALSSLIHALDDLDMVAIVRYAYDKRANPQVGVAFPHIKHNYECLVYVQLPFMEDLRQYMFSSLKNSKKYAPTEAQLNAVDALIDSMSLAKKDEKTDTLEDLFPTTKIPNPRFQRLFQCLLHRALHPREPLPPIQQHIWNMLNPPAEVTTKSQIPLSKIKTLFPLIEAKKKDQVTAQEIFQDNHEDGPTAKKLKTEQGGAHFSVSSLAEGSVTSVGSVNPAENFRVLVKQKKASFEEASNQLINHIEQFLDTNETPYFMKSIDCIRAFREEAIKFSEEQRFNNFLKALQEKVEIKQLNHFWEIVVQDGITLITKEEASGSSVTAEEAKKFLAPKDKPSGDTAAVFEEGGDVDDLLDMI
Sequence of Ku70-Ku80 heterodimer (Ku);PAXX WT (PAXX1-204, C9orf142) (Q9BUH6 whole entry, chain 3 of 3): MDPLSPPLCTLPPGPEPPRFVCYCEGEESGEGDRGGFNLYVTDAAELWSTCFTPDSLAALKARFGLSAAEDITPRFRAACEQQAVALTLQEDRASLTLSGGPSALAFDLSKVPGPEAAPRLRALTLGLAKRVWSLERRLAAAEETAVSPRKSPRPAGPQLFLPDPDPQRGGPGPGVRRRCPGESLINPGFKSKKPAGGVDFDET

B1: 50-bp 6-FAM dsDNA (dsDNA)
DNA 1: TAAATGCCAATGCTGCTGATACGTACTCGGACTGATTCGGAACTGTAACG
DNA 2: CGTTACAGTTCCGAATCAGTCCGAGTACGTATCAGCAGCATTGGCATTTA
binding result: binds
